From the domain aggregation screens of Martell et al. (2025)

Test: soluble fraction after stress (log2 fold change); higher = more stays soluble; pooled small domains, quantitative proteomics
Conditions: stress: pH 4
Summary of the method: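 Pooled custom libraries of small protein domains were subjected to pH 4 and measured by high-throughput quantitative proteomics. The log2 fold change in soluble amount per domain is reported, higher values meaning more remained soluble. This is used as a measure of aggregation propensity.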

| Sequence | soluble fraction (log2) |
| --- | --- |
| HMSNYIVELSSSEKIDDIDNNNNLINSFFSKSDSQWEYKLVFKNKNEMDVFVKKISTNNKIISYKTSS | -0.106 |
| HMSPAETGIYHILVENGKPNRHGLDATNKNENWLRQFLITQNTRLEDVFLLLADDGGGIRFFKSQ | -0.658 |
| HMSPAPVSVDHLAFPTRDLEATDHFYSKVVGATLVHAESGYSPSWKSDYLLITYALPDGTRLSFFDWP | -0.133 |
| HMSPDTREAILAAARTAFARDGYQTSLRGIARDAGVDPALVHHYFPDRATLFAKAVIESTAG | -0.047 |
| HMSPFAHHLHELRMRHGIRQNELAELIGYDQTYISALEVGLKGPPTPEFVDKLVEGLALSRTEEAALRSAA | -0.562 |
| HMSPFYALDEVDSFLDGVNVERLAALIARQAEQAQFLVVSHRRPMIGASTRTIGVTQARGAHTQVVGLP | -0.872 |
| HMSPGAKIEVTGNTVNLRAGPGTNYDTRGQVKKGEQLPLLGEQGGWYRVQTSRGVAYLAGWLARVLT | -0.0378 |
| HMSPLDSHLGRRIALRRQQLNTSAADLEKAISMVPGSVARFEAGRQSLNATQLFTLSRALDVPVLYFFEG | -0.418 |
| HMSPREDQQSRKQHILEAAAVLFAERGYYKTTTADVARAVGVTQPYVFHFFKSKEELYLAVL | 0.219 |
| HMSPSDLSAEAQKVYALLDGRELSFDTLVEESGFDTGSLLAILMRLEMKMLVEHGADQVYRRSG | -0.98 |
| HMSPVKAPLPGVVLDIHVSVGQEVKASDTVVTLEAMKMENAIKAGVDGKVASISVGKGDSVLEGAVLLTI | 0.322 |
| HMSQAVTMLKAGRLLANSKGTGAAVRDLEPGMLLYPTGQKDGTMWEVEDEMGNKGWVNSTSMQLA | 0.395 |
| HMSQDEKITNYIYEGNKNTQTEAFVEAEKSYRKALSLSPEKPEALYNLGNTHFLDKQYDEASQRFF | -0.111 |
| HMSQDINVFIKTNPENATIIWDGESKGTNGIFKSNAGAHRLRIEMQGYESIDQDIQVSDKQFSFEYNLKKE | 0.22 |
| HMSQIANLLLSKNIKVNNQNIIYYETVLKYLPNNEKKEFFINAMKNNIYFTEEEIKNFGNIFN | -0.786 |
| HMSQIQIKLDQAIMQLPEKQRFVFMLRYFEELPYEKIAQITETSIGGAKANFHQALKKMQEIIQ | -0.397 |
| HMSQKVQEDFLGDIRKNEIAVTVFLINGVKLQGVITWFDDASILLRRDGHTQLIYKHAVSTIMPGVAVDI | -0.632 |
| HMSQLYINATDDGWVIGNLPADAREVLLTTLGGQVVARYHVTAPSLRVKAPRKGVYIVSVETA | -0.0877 |
| HMSQQVVTDGVNLRLRYAPSPDAETYKWADGTNRHPEKGERFPYLGDIGDFYRIDYKGLVLYVSKQHTHL | -0.34 |
| HMSQRITYTEFVQMVKDDKVEKVEVGANQYNITPKSDDKTLVKMTYYTGFIKDENLLDLLNKHKVEIDGYI | 0.169 |
| HMSQSIGQEKALSIALADAGVQKENALGLEVKGEYDDGQLLYEVEFRAGGVEYEYEVRASDGRIVKAERD | 0.0913 |
| HMSQSMEVLYTDLTDKDAAAIVEKLEEEKIPYQLEDQGTTILVPPGVKYTTRLKLAAEDLPKG | 0.178 |
| HMSQYVPDPVLNAALVGYLDFRKQAGKPMTDYSIRLLLVDLAKLSGNPQEQAAILDQSTKNNWIGVYALG | -0.326 |
| HMSRAARLALDALPDEWAQFAESRGLAGSAMAETWETFRDYWQAQPGQKGVKADWAATWRNWVRRETQNRG | -0.074 |
| HMSRDYKTELQERLQVNGPVKIEYQVIAEDESKPSFKVQLLVNDKKISEGQGRNKKAAEQQAAQAAL | 0.0788 |
| HMSREEFLTELRKALQGRVSQQTVNDNLRYYEEYILTESHKGKTEAEVIAELGNPRLLAKSIIDAENAT | -0.0903 |

| Sequence | soluble fraction (log2) |
| --- | --- |
| HMSRESNISTGRQLLEAQLPTWGYKKVEDIPSKQMKTALDAFNYKDVESLLQGLGEGSVALTTALRRLMP | -0.926 |
| HMSRFLEGILQRRAGGKNYFVPDDGSNPIFIADRNSAGAANGDRVRIAQFARRPRSGPEGEVVEILKRAK | 0.153 |
| HMSRGAIVTGTVIEKNQSGIYVDLGYKSDGIVPIEEFDGEESKYNVGDQIRVYVKKVDDGHGQLML | -0.135 |
| HMSRGTRIDPNWQPSPEDRALARAEGFSDPEIDREALQFRDYWLGASGSNAVKLDWSATWRNWVRRAATNF | -0.204 |
| HMSRKERERSQHRRDILAAGEKIFAQKGYFNATIEEIAREAEFSVGTIYNFFSNKETLYQEIIRSI | -0.43 |
| HMSRLQDAELQAQIDKMAGAMQLRDIPVYVQDIPTINGLAAPDGRVFITQGFIDKYKLGEVSAGEIASVI | 0.316 |
| HMSRPLISNMLRLLNLPPTVQRKVAAGVISAGHARALLGLNDEKEIEKLANRIVAEGLSVRATEEIVAIA | -1.28 |
| HMSRWHEFLNKSEDGMKELDEQNQKVLTLLILQRFYQTPFQAKEDEEFYREFFERLSSVNEILG | -0.283 |
| HMSSAYLTVRGIDIDVIYKDIKNLHIAVYPPFGRVRVAAPSHLDDDQVRLAVIQRLTWIKRQRERLRST | -0.336 |
| HMSSDEAEYKLLLGQEGVAKSPLRPSGVVDFSGRRLDVQTLGDFIESGETVVVKQVNGHRVLVERK | 0.0409 |
| HMSSDEEQLATLTRLLQKQEQIIQTLGPRNPMVSLQQYANTITKVIEMAGFKDTSQFINSQIP | -0.0429 |
| HMSSDLESVIGTHSQEANFALRSWGWIQPDETWKNLRPDQVSQILERANEFMAKAIESFANAQSE | -0.984 |
| HMSSDLLGVRVRRARARAGLTRRRLSLLSGVSERFLAQLESGQGNISIVLIRRVAAALGAELVELIGS | -0.0528 |
| HMSSEDTQSRDRARKELSNEMSRIMKRYGLDYQPRDNADDIMNRLKAAGADENTLAYVQEKLK | 0.0559 |
| HMSSEITYDKFIEMVDKDQVKEVTLQSGVLTVVPKIQKSYYQNASYKVNQMEDVDALTKRLEGTGIVFHY | 0.129 |
| HMSSEITYDKFIEMVEEGNVKEVTLQSDTLTIKPKHQDSAFSEKEYYTRQMESADQLTERLEGTGIEFHS | -0.642 |
| HMSSEQRSVLFPNLAETDKVAVIEALMAAGVNARVDSASGRVTVPSGDYYNSRAILAAQGLPTS | -0.175 |
| HMSSETTVPAVVGIKEDKARQLASEQGLRLRVKSREESADVEEGIIISQDPNSNTKVKKGDEIEVVVS | 0.32 |
| HMSSFSESFHKALNNLDDKHKSVFSLRHFEGFSMKEIAETLNINEGTVKSRLFYATKTLAGALKEF | -1.29 |
| HMSSGKTGTITLQPKQTVYGITKQYKISEADLRKLNPQLDSNLKIGDKITLPLDNIQRYSDSSSNVAQT | 0.22 |
| HMSSGLLTVQEQRILEHLANGERNGDIAGRLHISEGTVKWHLHNMYRKLDAATRTQAVARARALRL | -0.428 |
| HMSSIGERISDVRKARGYTQDQLAERIHVSRQTISHWENERALPDFESIKQLSQVLGYDFSS | 0.0836 |
| HMSSIHQDAKQQLHEYIRTYIQPLMRAGKQVTVWDIIGHVTIRKPKLVQKIGTQQLINMVQDLLE | -0.302 |
| HMSSKSDQLYLQLRRRISAMKDGEPFPTVRQLMTEYQVSQSTVTPAINQLKEKGLIEAYVGRGSFVSKK | 0.161 |
| HMSSKTKVEDLGLSTRTLNALIGGSIKTAGGLTRKSESDLLSLDGLGEKGITEIKEALENIGLSLK | 0.0218 |
| HMSSLKKISIDELSPGMYVHSIVEQKGSVKIKSQGKVLKQAVVDALRKRGVKTLLIDLSKQFNPETGEP | 0.346 |

| Sequence | soluble fraction (log2) |
| --- | --- |
| HMSSLTPRETEVLSRMAQGDANTSIAERLVITEKAVQKHINAIFAKLGLAEEPTSARRVLAVLAFLR | -0.407 |
| HMSSLTQREYEIAELVADGLSNKAIAAELSISHTTAARHVANIMNKLGFNSRSQIAAWVADRAQG | -0.46 |
| HMSSNLSLHKEGNKIVILGLEGKSVIEVYDLMGRLLSSQTNYNPKQEITLLQPVIIRVTDTQQTKSFKV | -0.132 |
| HMSSNLTVFTRNNAIIVNSDVVRKLNVFAVDGRLVRSVDLSVGENVINNISRGMYLIDKQKVVV | ≥ 0.43 |
| HMSSPDMSLLYSELDVKDSGQIVTILEQRNIPYEVRNNGSQIYIPSNNVQRIRLSLAQEGLPSG | 0.152 |
| HMSSPTAKATGSSVNIRKSASTGAAVLKRVEKGTVLEAVSISDGWVKVKYSGVTGYVSADYVKVSGL | 0.154 |
| HMSSQGQNTKTGTVTASALYVRSGAGTNYSQIGYLLKNTKVEIVGQTGSWYKIKFGSGTGYVSSKYIK | 0.0256 |
| HMSSQLETTFATLIGKRVSIRLHDPEGGFRDILGHLESPYSLRNRHGNLIEFAHDQIFLWREVI | -1.18 |
| HMSSRNLIIFYDSPQAENALLATAERYGAILLHHYRNLHGIAVAIPADKDMAQAVTYFSRQPGVRQV | 0.103 |
| HMSSSKVAISQFEELVDQGQVREVVIEGSTATGTTAAGRRFAAEIPPGGMELFLSKLDDAGTTYEYSPP | 0.127 |
| HMSSSYTEMQLDKLKKLLEKETLLSSEKSELKSLIHDFDKIPEVVSPLIVGEYLRLKNKYIAVINSLE | -0.322 |
| HMSSSYTEMQLERFKELLNKETLLSSEKNELKNLISDFDKISEIVSPLVVGAYLQLKNEHIETINSLG | -0.846 |
| HMSSTAIQAMIRRLIDGEDPRKPLSDARLAETLKASGVPVARRTVAKYRESMSIPSSQDRLRI | 0.0607 |
| HMSSTSTKTQNIVHIVKSGETLSAIASKYGVSVDNIKKWNNLSSDKLSIGQKLKINPTTQTSS | -0.186 |
| HMSSVEEILQTLGGRIRTQRLAQGISQQVLADRAGLSLGAVRQLEGSGQSGLDTLVRVLFVLGIVDEL | -1.57 |
| HMSSVHTMEVKSTTQIKVLDENKNLSSYYSMKNPVSFNYRLFFLNQDELKKLQEDLKTNNDIQSIDIKYA | -0.944 |
| HMSTALTPLTTREREVLALMAEGLTNSGIAARLVLTDRTVETHVSRILHKLGLGETTTNEHRRVLAVLRYL | -0.716 |
| HMSTASPEELRQTPERRRLIEYLREHGGHGRTSEIAAALGIDDSTASRLLRRLADNGLIVRTQYGEYTLLQ | -0.0496 |
| HMSTEAVVMSSSVSVKSSPDKASTDLFVLHEGTKVRTVSELGDWREIVIADGKKGWVEARTIET | 0.151 |
| HMSTEPLALVGKTGIAATVLRPSGRIEVDDKYYDAVSLGAFIEKGEMVNIVKYENLQLYVAKL | -0.0114 |
| HMSTFAQNLRALMEKRGVSQNELARSAGLTQSAINKILTGKTKQPGIDTTEAIARVLNVSVAQLIYT | 0.22 |
| HMSTFTPYLVKVTTSVLNIRKGAGTNYGTNGSIRDMGTYTIVAEADGQGASKWGKLKSGAGWISLDYTKK | 0.184 |
| HMSTILERLIMLQEQSGMNQKQLQKELGLSNSAFSDWKKGKGRPSVEALVRFSEFFGVSMDWLAFG | -0.845 |
| HMSTKRQKELLEYVDRFITEHGYGPSYREIMNAIGYKSVSTVAIHIDGLIAKGYLRKRDNSARSLEVV | 0.249 |
